US7399466B2, “Method and compositions for promoting osteogenesis” (Enobia Pharma Inc., priority 2000, dated 2008)
“And” between values parts separate entries of the source, which are not always exact repeats. Equal entries are not always repeated. Where two headings read alike, the source gives them in different places. Bridges are numbered along the chain shown (N, C = ends). Where no end group is shown, it is not given here. [ ]: non-standard residue; d: D form. Gla = N[C@@H](CC(C(=O)O)C(=O)O)C(=O)O

What was measured:
secPHEX = target: T1, secPHEX (Homo sapiens, UniProt P78562); test: secPHEX enzymatic assay: inhibition of PTHrP107-139 hydrolysis (RP-HPLC); format: biochemical
T1 construct: made in house; host or cells: LLC-PK1 cells (porcine kidney; ATCC No. CRL-1392), stably transfected; purified from culture medium
T1 sequence (P78562 46-749): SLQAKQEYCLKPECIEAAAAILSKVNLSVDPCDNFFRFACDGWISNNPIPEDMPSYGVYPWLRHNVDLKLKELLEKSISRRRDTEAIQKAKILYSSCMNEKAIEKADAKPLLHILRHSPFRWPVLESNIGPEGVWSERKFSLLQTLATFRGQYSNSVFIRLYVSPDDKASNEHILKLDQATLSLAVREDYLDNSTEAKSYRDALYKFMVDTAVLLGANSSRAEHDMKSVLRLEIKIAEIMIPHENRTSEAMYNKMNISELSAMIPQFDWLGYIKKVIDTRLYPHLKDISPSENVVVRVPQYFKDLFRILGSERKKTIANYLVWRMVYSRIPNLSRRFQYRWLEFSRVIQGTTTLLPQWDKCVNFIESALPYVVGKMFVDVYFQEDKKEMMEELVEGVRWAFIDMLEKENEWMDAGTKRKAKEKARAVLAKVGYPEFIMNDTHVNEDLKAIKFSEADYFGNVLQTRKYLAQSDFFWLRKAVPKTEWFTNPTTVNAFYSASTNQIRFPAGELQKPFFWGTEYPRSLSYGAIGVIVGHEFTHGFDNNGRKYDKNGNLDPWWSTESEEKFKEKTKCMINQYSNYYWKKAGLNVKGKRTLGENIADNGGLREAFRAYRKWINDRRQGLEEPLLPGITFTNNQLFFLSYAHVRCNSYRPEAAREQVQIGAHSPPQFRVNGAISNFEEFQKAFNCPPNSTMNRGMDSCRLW
Method: (§1) One μg of purified secPHEX or secPHEXE581V was incubated with 5 μg of peptide substrate for 30 min at 37° C. in a volume of 200 μl of 50 mM MES (2-(N-morpholino) ethanesulfonic acid) pH6.5, 150 mM NaCl. Peptide PTHrP107-139 (human origin and obtained from Bachem, Philadelphia, Pa., U.S.A. or Peninsula Laboratories, Belmont, Calif., U.S.A.), used as a substrate, was prepared as 1 μg/μl solutions also containing 1 μg/μl of the tripeptide Tyr-Gly-Gly. This latter peptide, which is not a PHEX substrate, was used as an internal standard. Peptide substrate AWLDSGV (Dr Gilles Lajoie, Waterloo Peptide Synthesis C2-360 University of Waterloo, Waterloo, ON Canada) (SEQ ID NO: 1) was digested with secPHEX in the same manner as described above for PTHrP107-139. To determine osteocalcin inhibitory potency on secPHEX activity, osteocalcin (Peptide Research Institute, Japan or E. coli-produced) was added to the reaction mixture to final concentrations varying from 10^−8 to 5×10^−4 M. To determine the effect of agents on the inhibitory activity of osteocalcin, the agents were added to a reaction mixture containing secPHEX, peptide substrate and 5×10^−6 M osteocalcin. […] Following the incubation period, hydrolysis was stopped by the addition of EDTA to a final concentration of 5 mM. The potentiating agent was identified when the intact substrate was determined to be present in a […] concentration than in the absence of the potentiating agent (see FIG. 6). Results were quantified by comparing, after normalization for the amounts of peptide Tyr-Gly-Gly present in the samples, the areas under the peaks of the substrate.
Identification and quantification of the enzymatic activity of secPHEX on the PTHrP107-139 peptide was performed by reverse phase high performance liquid chromatography (RP-HPLC) on a C18 μBondapak analytical column (Waters, Mississauga, ON, Canada) with a UV detector set at 214 nm. Peptides were resolved with a linear gradient of 5% B to 85% B in 45 min at the flow rate of 0.4 ml/min [mobile phase A=0.1% trifluoroacetic acid; mobile phase B=80% acetonitrile (CH3CN), 0.1% trifluoroacetic acid].

osteocalcin = target: T2, osteocalcin (Homo sapiens, UniProt P02818); test: Effect of Ca2+ on the inhibitory action of osteocalcin on secPHEX; format: biochemical
T2 construct: The mature peptide is 49 amino acids long with 3 Gla residues and one difulfide bond; purchased Peptide Research Institute, Japan
T2 sequence (P02818 52-100): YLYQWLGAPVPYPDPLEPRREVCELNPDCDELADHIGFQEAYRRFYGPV
Method: One μg of purified secPHEX or secPHEXE581V was incubated with 5 μg of peptide substrate for 30 min at 37° C. in a volume of 200 μl of 50 mM MES (2-(N-morpholino) ethanesulfonic acid) pH6.5, 150 mM NaCl. Peptide PTHrP107-139 (human origin and obtained from Bachem, Philadelphia, Pa., U.S.A. or Peninsula Laboratories, Belmont, Calif., U.S.A.), used as a substrate, was prepared as 1 μg/μl solutions also containing 1 μg/μl of the tripeptide Tyr-Gly-Gly. This latter peptide, which is not a PHEX substrate, was used as an internal standard. Peptide substrate AWLDSGV (Dr Gilles Lajoie, Waterloo Peptide Synthesis C2-360 University of Waterloo, Waterloo, ON Canada) (SEQ ID NO: 1) was digested with secPHEX in the same manner as described above for PTHrP107-139. […] The potentiating agent was identified when the intact substrate was determined to be present in a […] concentration than in the absence of the potentiating agent (see FIG. 6). Results were quantified by comparing, after normalization for the amounts of peptide Tyr-Gly-Gly present in the samples, the areas under the peaks of the substrate.
(§2) Identification and quantification of the enzymatic activity of secPHEX on the PTHrP107-139 peptide was performed by reverse phase high performance liquid chromatography (RP-HPLC) on a C18 μBondapak analytical column (Waters, Mississauga, ON, Canada) with a UV detector set at 214 nm. […]

PTHrP107-139 = test: secPHEX activity: digestion of PTHrP107-139 (RP-HPLC, MALDI-Tof); format: biochemical, human
Method: as §1, §2
The pH optimum for the reaction was determined by progressively increasing the pH of the MES buffer from 5.0 to 7.0 or of a Tris buffer (50 mM Tris.HCl, 150 mM NaCl) from 7.0 to 9.0.

Hyp male mice [1] = test: secPHEX injection to Hyp mice, daily for 14 days: serum alkaline phosphatase and phosphate; format: in vivo, mouse
Method: Purified secPHEX solubilized in 1 mM phosphate pH 7.4, 150 mM NaCl, was administered intravenously daily for 4 or 14 consecutive days through the subclavian vein Hyp males (12 weeks of age). The same number of aged-matched Hyp male mice were treated with vehicle only as controls.
In a similar experiment, Hyp male mice where injected with daily doses of 1 mg/kg secPHEX for 14 days.

[2] = Precipitation of secPHEX in low-salt solutions; format: physicochemical; details: NaCl added to reaction mixture
Method: SecPHEX activity was assayed in 50 mM MES pH 6.5 containing 150 mM NaCl (26). Sodium chloride was added to the reaction mixture because we observed that secPHEX precipitated out in solutions containing less than 50 mM salt.

Hyp male mice [3] = test: secPHEX injection to Hyp mice, daily for 4 days: serum phosphate; format: in vivo, mouse; design: serum phosphate, Day 0 / serum phosphate, Day 4: unit not given here; details: for serum phosphate, Day 0 / serum phosphate, Day 4: individual Hyp mice; for serum phosphate, Day 0: baseline before treatment
Method: Purified secPHEX solubilized in 1 mM phosphate pH 7.4, 150 mM NaCl, was administered intravenously daily for 4 or 14 consecutive days through the subclavian vein Hyp males (12 weeks of age). The same number of aged-matched Hyp male mice were treated with vehicle only as controls. […]

[4] = PTHrP107-139 substrate, inhibitor varied from 0.1 to 50 mM, read-out: concentration giving 50% inhibition of secPHEX activity
[5] = 1 mM added to the reaction mixture
[6] = 1 mg/kg daily, individual Hyp mice

## O=P(O)(O)O [Pi]
secPHEX; [4]
  IC50: 3.5 mM

## [Ca+2] [Ca^2+, CaCl2, reference compound]
secPHEX; data not shown
  effect on secPHEX activity in the absence of osteocalcin: no effect
osteocalcin; CaCl2 varied from 10^−6 to 10^−2 M, constant osteocalcin 2×10^−6M (FIG. 6B), read-out: Ca2+ concentration necessary to reduce the inhibitory potency of osteocalcin by 50%
  EC50: 5 mM

## O=C(O)CN(CCN(CC(=O)O)CC(=O)O)CC(=O)O [EDTA]
secPHEX; [5]
  inhibition of secPHEX activity: fully inhibited

## osteocalcin: non-collagenous bone protein, mature peptide 49 amino acids with 3 Gla residues; extracted from human bones (YLYQWLGAPVPYPDPL[Gla]PRR[Gla]VC[Gla]LNPDCDELADHIGFQEAYRRFYGPV; disulfide 23-29 (inferred))
secPHEX; 5×10^−6 M osteocalcin
  inhibition of secPHEX activity: approximately 75%
secPHEX; data not shown
  degradation by secPHEX: not degraded
secPHEX; secPHEX-mediated PTHrP107-139 hydrolysis, FIG. 6A, read-out: concentration giving fifty percent inhibition of secPHEX activity
  IC50: 0.0036 mM

## O=P(O)(O)OP(=O)(O)O [pyrophosphate]
secPHEX; [4]
  IC50: 2.5 mM

## E. coli-produced osteocalcin: human osteocalcin without Gla residues made in E. coli (pGEX-OST vector) (YLYQWLGAPVPYPDPLEPRREVCELNPDCDELADHIGFQEAYRRFYGPV)
secPHEX; FIG. 7A
  inhibitory potency on secPHEX compared to osteocalcin extracted from bones: similar
osteocalcin; FIG. 7B
  modulation of inhibitory activity on secPHEX by Ca2+: not modulated

## c1cnc2c(c1)ccc1cccnc12 [1,10-phenanthroline]
secPHEX; [5]
  inhibition of secPHEX activity: fully inhibited

B1: secPHEX: soluble, secreted form of recombinant human PHEX zinc metallopeptidase produced in LLC-PK1 cells (protein, UniProt P78562 42-641, looked up)
extracellular domain: QGLLSLQAKQEYCLKPECIEAAAAILSKVNLSVDPCDNFFRFACDGWISNNPIPEDMPSYGVYPWLRHNVDLKLKELLEKSISRRRDTEAIQKAKILYSSCMNEKAIEKADAKPLLHILRHSPFRWPVLESNIGPEGVWSERKFSLLQTLATFRGQYSNSVFIRLYVSPDDKASNEHILKLDQATLSLAVREDYLDNSTEAKSYRDALYKFMVDTAVLLGANSSRAEHDMKSVLRLEIKIAEIMIPHENRTSEAMYNKMNISELSAMIPQFDWLGYIKKVIDTRLYPHLKDISPSENVVVRVPQYFKDLFRILGSERKKTIANYLVWRMVYSRIPNLSRRFQYRWLEFSRVIQGTTTLLPQWDKCVNFIESALPYVVGKMFVDVYFQEDKKEMMEELVEGVRWAFIDMLEKENEWMDAGTKRKAKEKARAVLAKVGYPEFIMNDTHVNEDLKAIKFSEADYFGNVLQTRKYLAQSDFFWLRKAVPKTEWFTNPTTVNAFYSASTNQIRFPAGELQKPFFWGTEYPRSLSYGAIGVIVGHEFTHGFDNNGRKYDKNGNLDPWWSTESEEKFKEKTKCMINQYSNYYWKKAGLNVKGKRTLG
modifications: extracellular domain
notes: soluble, secreted form of recombinant human PHEX zinc metallopeptidase produced in LLC-PK1 cells
PTHrP107-139; MES buffer pH 5.0 to 7.0, Tris buffer pH 7.0 to 9.0
  pH of maximum activity: 6.5
PTHrP107-139; fragments identified by MALDI-Tof
  cleavage site specificity in PTHrP107-139: amino-terminus of aspartate residues
Hyp male mice [1]; 1 mg/kg daily for 14 days
  serum phosphate levels at the 7th and 14th day: same level as pretreatment
Hyp male mice [1]; 1 mg/kg daily for 14 days, normal levels 71+/−11 units, Student t test p<0.05
  effect on serum alkaline phosphatase levels: significantly reduced toward normal levels
Hyp male mice [1]; [6]
  alkaline phosphatase level, 7th day of treatment: 183 units and 235 units and 233 units and 199 units and 246 units
  alkaline phosphatase level, 14th day of treatment: 196 units (2×) and 208 units and 193 units and 218 units
Hyp male mice [1]; 1 mg/kg group, individual Hyp mice, 7 day pre-treatment
  alkaline phosphatase level, pre-treatment: 292 units and 357 units and 377 units and 348 units and 323 units
[2]
  salt concentration below which secPHEX precipitated out: less than 50 mM
Hyp male mice [3]; daily injection over 4 days, as a function of dose, Student t test p<0.05
  effect on serum phosphate: decreased
Hyp male mice [3]; dose 1 mg/kg group, 1 mg/kg
  serum phosphate, Day 0: 1.68 and 1.25 and 1.36 and 1.37
Hyp male mice [3]; dose 1 mg/kg i.v. daily for 4 days, 1 mg/kg
  serum phosphate, Day 4: 1.23 and 1.06 and 1.18 and 1.31
Hyp male mice [3]; dose 10 mg/kg group, 10 mg/kg
  serum phosphate, Day 0: 1.16 and 1.12 and 1.39 and 1.14
Hyp male mice [3]; dose 10 mg/kg i.v. daily for 4 days, 10 mg/kg
  serum phosphate, Day 4: 0.92 and 0.82 and 0.89 and 0.87

B2: secPHEXE581V: inactive secPHEX protein bearing the mutation Glu 581 to Val (protein)
chain: QGLLSLQAKQEYCLKPECIEAAAAILSKVNLSVDPCDNFFRFACDGWISNNPIPEDMPSYGVYPWLRHNVDLKLKELLEKSISRRRDTEAIQKAKILYSSCMNEKAIEKADAKPLLHILRHSPFRWPVLESNIGPEGVWSERKFSLLQTLATFRGQYSNSVFIRLYVSPDDKASNEHILKLDQATLSLAVREDYLDNSTEAKSYRDALYKFMVDTAVLLGANSSRAEHDMKSVLRLEIKIAEIMIPHENRTSEAMYNKMNISELSAMIPQFDWLGYIKKVIDTRLYPHLKDISPSENVVVRVPQYFKDLFRILGSERKKTIANYLVWRMVYSRIPNLSRRFQYRWLEFSRVIQGTTTLLPQWDKCVNFIESALPYVVGKMFVDVYFQEDKKEMMEELVEGVRWAFIDMLEKENEWMDAGTKRKAKEKARAVLAKVGYPEFIMNDTHVNEDLKAIKFSEADYFGNVLQTRKYLAQSDFFWLRKAVPKTEWFTNPTTVNAFYSASTNQIRFPAGELQKPFFWGTEYPRSLSYGAIGVIVGHVFTHGFDNNGRKYDKNGNLDPWWSTESEEKFKEKTKCMINQYSNYYWKKAGLNVKGKRTLG
PTHrP107-139; similar conditions as secPHEX, FIG. 3D
  degradation of PTHrP107-139 (in words): failed to degrade
